The text below walks through data of US20170102393A1.

In assay [1] the target is α4β7 integrin (Homo sapiens (Human)) (UniProt P13612). Description: blocking of α4β7 interactions with MadCAM-1, VCAM-1 and fibronectin (range told for the three ligands); assay not described.
Assay [2] deals with αEβ7 integrin (Homo sapiens (Human)) (UniProt P38570). In words: blocking of E-cadherin binding to αEβ7; assay not described.
Assay [3] has as its target integrin β7 (β7 receptor) on cynomolgus monkey peripheral-blood T cells / lymphocytes (cynomolgus monkey (Macaca fascicularis)). Description: cell-based or functional assay.
For assay [4] the target is unchanged. In words: β7 receptor occupancy by flow cytometry against serum concentration, dosed cynomolgus monkeys.

Chain of UniProt P38570 (P38570 19-1179 limits assumed, form in doubt, chain 1 of 2): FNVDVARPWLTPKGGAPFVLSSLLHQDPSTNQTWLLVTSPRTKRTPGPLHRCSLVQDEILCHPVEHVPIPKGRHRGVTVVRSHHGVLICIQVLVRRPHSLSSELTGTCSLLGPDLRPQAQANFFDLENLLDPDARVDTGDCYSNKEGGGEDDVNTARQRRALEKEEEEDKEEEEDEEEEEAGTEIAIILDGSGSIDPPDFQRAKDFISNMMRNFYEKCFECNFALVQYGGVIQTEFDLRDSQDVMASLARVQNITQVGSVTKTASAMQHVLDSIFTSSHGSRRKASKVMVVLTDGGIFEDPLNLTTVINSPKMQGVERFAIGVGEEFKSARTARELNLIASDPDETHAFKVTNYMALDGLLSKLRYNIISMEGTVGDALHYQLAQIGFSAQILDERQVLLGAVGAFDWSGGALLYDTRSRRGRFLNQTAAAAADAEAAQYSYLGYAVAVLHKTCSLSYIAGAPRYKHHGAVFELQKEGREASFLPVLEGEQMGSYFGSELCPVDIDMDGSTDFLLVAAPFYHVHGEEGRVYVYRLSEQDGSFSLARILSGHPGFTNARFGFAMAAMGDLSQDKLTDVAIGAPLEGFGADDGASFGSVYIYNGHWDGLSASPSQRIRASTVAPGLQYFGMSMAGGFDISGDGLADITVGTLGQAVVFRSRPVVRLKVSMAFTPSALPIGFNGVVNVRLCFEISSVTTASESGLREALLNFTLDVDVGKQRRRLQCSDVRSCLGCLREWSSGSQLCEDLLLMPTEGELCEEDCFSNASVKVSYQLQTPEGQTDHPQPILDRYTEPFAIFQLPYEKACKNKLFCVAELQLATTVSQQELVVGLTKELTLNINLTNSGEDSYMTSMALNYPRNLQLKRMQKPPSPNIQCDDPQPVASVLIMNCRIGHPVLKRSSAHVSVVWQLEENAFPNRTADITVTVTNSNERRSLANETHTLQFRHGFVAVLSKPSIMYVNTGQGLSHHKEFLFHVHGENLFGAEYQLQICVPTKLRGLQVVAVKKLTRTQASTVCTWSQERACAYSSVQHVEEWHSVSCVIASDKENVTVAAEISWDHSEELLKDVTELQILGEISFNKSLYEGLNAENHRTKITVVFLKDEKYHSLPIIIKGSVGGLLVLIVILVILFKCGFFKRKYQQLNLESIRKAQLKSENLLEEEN
Chain of UniProt P38570 (beta, as listed by the source limits assumed, form in doubt, chain 2 of 2): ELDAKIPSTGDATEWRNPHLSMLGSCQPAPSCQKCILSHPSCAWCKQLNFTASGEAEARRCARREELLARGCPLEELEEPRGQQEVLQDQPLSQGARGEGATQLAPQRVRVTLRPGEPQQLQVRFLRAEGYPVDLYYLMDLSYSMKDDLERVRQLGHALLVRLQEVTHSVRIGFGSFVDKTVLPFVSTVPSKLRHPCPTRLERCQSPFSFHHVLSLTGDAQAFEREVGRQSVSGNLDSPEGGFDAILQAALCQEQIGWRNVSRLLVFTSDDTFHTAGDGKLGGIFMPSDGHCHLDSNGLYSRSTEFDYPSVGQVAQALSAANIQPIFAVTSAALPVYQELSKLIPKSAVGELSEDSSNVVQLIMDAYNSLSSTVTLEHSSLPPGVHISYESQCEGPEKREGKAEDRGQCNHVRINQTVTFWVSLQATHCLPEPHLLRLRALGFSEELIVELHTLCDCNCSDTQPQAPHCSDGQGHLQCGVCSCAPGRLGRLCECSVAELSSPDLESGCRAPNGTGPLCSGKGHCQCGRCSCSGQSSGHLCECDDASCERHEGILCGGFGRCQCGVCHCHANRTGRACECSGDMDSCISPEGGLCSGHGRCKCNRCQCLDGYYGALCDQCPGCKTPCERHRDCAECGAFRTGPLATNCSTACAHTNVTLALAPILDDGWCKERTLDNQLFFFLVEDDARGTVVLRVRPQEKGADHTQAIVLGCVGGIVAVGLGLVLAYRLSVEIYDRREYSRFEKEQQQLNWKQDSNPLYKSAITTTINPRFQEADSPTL

B1: rhuMAb Beta7, recombinant humanized monoclonal anti-beta7 integrin antibody (antibody, from a related filing, V domains shown)
VH: EVQLVESGGGLVQPGGSLRLSCAASGFFITNNYWGWVRQAPGKGLEWVGYISYSGSTSYNPSLKSRFTISRDTSKNTFYLQMNSLRAEDTAVYYCARTGSSGYFDFWGQGTLVTVSS
VL: DIQMTQSPSSLSASVGDRVTITCRASESVDDLLHWYQQKPGKAPKLLIKYASQSISGVPSRFSGSGSGTDFTLTISSLQPEDFATYYCQQGNSLPNTFGQGTKVEIKR
As to B1, the IC50 in assay [1] fell in the range of 0.07 to 0.1 nM. For the same molecule, in assay [2], the IC50 was determined as 5 nM. In assay [3], this molecule came in with a CD45RA+ β7intermediate T cells in peripheral blood, increase over baseline, four weekly doses of 25 mg/kg, cynomolgus monkeys of 2.5 fold; a CD45RA- β7high T cells in peripheral blood, increase over baseline, four weekly doses of 25 mg/kg, cynomolgus monkeys of 5 fold; a group mean CD45RA- β7high CD4+ lymphocytes in peripheral blood, increase over baseline, 5 mg/kg IV weekly, cynomolgus monkeys of 4 to 5 fold; a group mean CD45RA- β7high CD4+ lymphocytes in peripheral blood, increase over baseline, 15 or 50 mg/kg IV or SC weekly, cynomolgus monkeys of 5 to 6 fold. For the same molecule, in assay [4], the serum concentration that maintains complete β7-receptor saturation was in the range of 1 to 10 µg/mL and the serum level below which available β7 is detected (desaturation) was determined as 10 µg/mL.
